The values that follow come from patent US20260022170A1 (ADAPTAM THERAPEUTICS S L, published 2026).

The target in assay [1] is Siglec-6 (UniProt O43699 27-347, limits assumed). Briefly: BLI, antibody in Fab format. The method, then: (§1) BLI experiments were performed to assess binding of the generated anti-Siglec-9 antibodies to Siglec family members Siglec-3, Siglec-6, Siglec-7, Siglec-8, Siglec-9, and Siglec-10. The antibodies were tested in Fab format at 250 nM.
(In general: Biolayer interferometry detects binding as a change in optical thickness at a sensor tip.)

The target in assay [2] is Siglec-8 (UniProt Q9NYZ4 17-363, limits assumed). Briefly: BLI, antibody in Fab format. The method, then:
as §1

Assay [3] addresses T1, Siglec-10 (UniProt Q96LC7 17-546, limits assumed).
T1 sequence (looked up): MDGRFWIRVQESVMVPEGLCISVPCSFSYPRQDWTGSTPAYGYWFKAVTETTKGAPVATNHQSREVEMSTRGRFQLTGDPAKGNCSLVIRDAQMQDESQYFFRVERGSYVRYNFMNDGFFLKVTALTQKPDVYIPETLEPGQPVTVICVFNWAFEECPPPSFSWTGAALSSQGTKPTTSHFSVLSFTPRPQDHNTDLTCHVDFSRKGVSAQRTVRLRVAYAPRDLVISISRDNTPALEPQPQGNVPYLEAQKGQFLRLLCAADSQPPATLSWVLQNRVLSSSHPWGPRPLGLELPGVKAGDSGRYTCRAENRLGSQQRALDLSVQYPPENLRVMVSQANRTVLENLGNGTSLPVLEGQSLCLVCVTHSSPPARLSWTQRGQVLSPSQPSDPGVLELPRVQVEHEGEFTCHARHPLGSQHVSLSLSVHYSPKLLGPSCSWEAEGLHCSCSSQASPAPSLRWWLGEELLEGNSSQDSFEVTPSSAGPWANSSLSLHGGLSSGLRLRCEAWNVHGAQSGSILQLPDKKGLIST
As to the kind of experiment: BLI, antibody in Fab format. The method, then:
as §1

Assay [4] addresses Siglec-7 (BLI) (UniProt Q9Y286 19-353, limits assumed). Briefly: BLI, antibody in Fab format. The method, then: as §1
Assay [5] concerns the target Siglec-3 (UniProt P20138 18-259, limits assumed). As to the kind of experiment: BLI, antibody in Fab format. How it is done:
as §1

The target in assay [6] is T2, human Siglec-9 protein (recombinant; construct not stated) (human, UniProt Q9Y336 18-344, limits assumed).
T2 construct: also called recombinant Siglec-9
Briefly: BLI, antibody in Fab format at 250 nM. The method, then:
as §1

For assay [7], the target named is T3, ectodomain of Siglec-7 (UniProt Q9Y286 19-353, limits assumed).
T3 construct: extracellular domain
As to the kind of experiment: ELISA on coated ectodomains. How it is done: (§2) Next, the binding of anti-Siglec-9 monoclonal antibodies ED2D5, C1B613, BC3G5, and DH1A11 to the ectodomains of Siglec-9, Siglec-7, and a control was assessed using ELISA. An anti-Siglec-7 antibody control and isotype control were utilized. […] Antibody clones huCB6B3, mAbA, 68D4, and Tf73 also produced similar EC50 values.
(§3) To perform the ELISA experiments, 96-well plates were coated with recombinant Siglec-9 (SinoBiological, 30109-H03H) (100 μL) at 2 μg/mL in carbonate/bicarbonate buffer pH 9.6 overnight at 4° C., and washed with 250 μL of PBST (PBS, 0.1% Tween-20). Plates were blocked with blocking buffer (3% BSA in PBS) for 1 hour at room temperature, washed, and 100 μL of serially diluted anti-Siglec-9 antibodies-test antibodies, benchmarks, or control-starting at 66.64 nM (4-fold serial dilutions in PBST with 1% w/v non-fat milk), were added for 2 hours at RT. The plates were washed and incubated at room temperature with an anti-mouse IgG HRP detection antibody (1:5000, 1-hour, Anti-mouse IgG-HRP), followed by three washes of 250 μL of PBST, and two more with 400 μL of PBS, before the addition of 100 μL of TMB (Thermo Scientific) for 2-6 minutes. The reaction was stopped with 50 μL of Stop Solution (Thermo Scientific). The OD was measured at 450 nm in a multimode plate reader (Victor Nivo, PerkinElmer). OD values were plotted against antibody concentration, and data were analyzed using GraphPad Prism software.
In general terms: An ELISA detects its analyte on a solid surface through an enzyme-linked reagent.

The target in assay [8] is T4, recombinant Siglec-9 (SinoBiological, 30109-H03H) (human, UniProt Q9Y336 18-348).
T4 construct: also called ectodomain of Siglec-9; recombinant human Siglec-9 protein
Briefly: ELISA on coated ectodomains. The method, then:
as §2, §3

For assay [9], the target named is T2, human Siglec-9 protein (recombinant; …). As to the kind of experiment: ELISA on recombinant Siglec-9. How it is done:
as §2
as §3, with “The reaction was stopped with 50 μL of Stop Solution (Thermo Scientific).” left out

Assay [10] has the same target. Briefly: ELISA, human Siglec-9 protein coated at 2 µg/mL, antibody titrated 0.4 pM to 400 nM. The method, then:
The binding of the different IgG CB6B3 antibodies was analyzed via ELISA using human Siglec-9 protein as immobilized antigen (2 μg/mL). The different antibodies were titrated from 0.4 pM to 400 nM (FIG. 9). Human Siglec-9 protein was diluted in PBS pH 7.4 and coated overnight at 4° C. Remaining binding sites were blocked with PBS, 2% skimmed milk power (MPBS) for 2 hours. Bound murine IgG CB6B3 antibody was detected with an HRP-conjugated anti-mouse Fc secondary antibody (Sigma Aldrich A554; 1:5,000 dilution). All antibodies were diluted in MPBS. Incubation times were 1 hour each. TMB/H2O2 was used as substrate. […] Thus, the humanised antibodies retained antigen specificity and bound with similar potency to purified antigen in ELISA.

T2 sequence (Q9Y336 18-344 limits assumed): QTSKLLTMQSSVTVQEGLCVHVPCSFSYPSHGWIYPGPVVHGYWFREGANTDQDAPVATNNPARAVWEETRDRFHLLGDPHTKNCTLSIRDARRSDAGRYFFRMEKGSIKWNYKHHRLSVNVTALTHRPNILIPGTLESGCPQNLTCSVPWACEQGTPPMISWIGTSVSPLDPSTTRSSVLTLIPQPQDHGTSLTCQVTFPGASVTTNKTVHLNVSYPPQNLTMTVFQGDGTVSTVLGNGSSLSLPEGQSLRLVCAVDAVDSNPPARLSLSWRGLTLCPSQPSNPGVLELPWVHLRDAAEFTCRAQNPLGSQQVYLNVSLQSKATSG
Chain of Siglec-6 (O43699 27-347 limits assumed): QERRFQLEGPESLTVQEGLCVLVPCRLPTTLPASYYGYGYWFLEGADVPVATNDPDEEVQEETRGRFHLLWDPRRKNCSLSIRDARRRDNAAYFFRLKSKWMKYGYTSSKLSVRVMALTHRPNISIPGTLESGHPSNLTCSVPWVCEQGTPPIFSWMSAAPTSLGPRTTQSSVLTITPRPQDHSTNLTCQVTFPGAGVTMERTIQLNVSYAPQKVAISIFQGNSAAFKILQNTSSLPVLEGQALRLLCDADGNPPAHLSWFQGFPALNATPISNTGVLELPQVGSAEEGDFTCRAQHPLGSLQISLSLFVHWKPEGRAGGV
Chain of Siglec-3 (P20138 18-259 limits assumed): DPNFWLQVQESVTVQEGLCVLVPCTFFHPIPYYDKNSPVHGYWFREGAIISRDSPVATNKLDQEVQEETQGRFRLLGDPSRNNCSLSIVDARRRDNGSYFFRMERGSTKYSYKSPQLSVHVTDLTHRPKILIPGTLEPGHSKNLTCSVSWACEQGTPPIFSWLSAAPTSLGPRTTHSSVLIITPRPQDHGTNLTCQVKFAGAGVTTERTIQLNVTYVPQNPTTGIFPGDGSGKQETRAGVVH
T4 sequence (Q9Y336 18-348 limits assumed): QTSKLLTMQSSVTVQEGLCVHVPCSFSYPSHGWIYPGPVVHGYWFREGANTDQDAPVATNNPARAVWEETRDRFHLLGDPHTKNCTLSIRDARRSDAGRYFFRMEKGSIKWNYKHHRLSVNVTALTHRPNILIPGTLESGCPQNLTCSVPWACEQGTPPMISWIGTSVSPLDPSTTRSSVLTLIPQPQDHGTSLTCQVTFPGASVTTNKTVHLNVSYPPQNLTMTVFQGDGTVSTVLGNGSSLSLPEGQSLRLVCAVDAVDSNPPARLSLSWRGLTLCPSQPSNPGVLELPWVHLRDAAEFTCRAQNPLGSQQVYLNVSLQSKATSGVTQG
Chain of Siglec-8 (Q9NYZ4 17-363 limits assumed): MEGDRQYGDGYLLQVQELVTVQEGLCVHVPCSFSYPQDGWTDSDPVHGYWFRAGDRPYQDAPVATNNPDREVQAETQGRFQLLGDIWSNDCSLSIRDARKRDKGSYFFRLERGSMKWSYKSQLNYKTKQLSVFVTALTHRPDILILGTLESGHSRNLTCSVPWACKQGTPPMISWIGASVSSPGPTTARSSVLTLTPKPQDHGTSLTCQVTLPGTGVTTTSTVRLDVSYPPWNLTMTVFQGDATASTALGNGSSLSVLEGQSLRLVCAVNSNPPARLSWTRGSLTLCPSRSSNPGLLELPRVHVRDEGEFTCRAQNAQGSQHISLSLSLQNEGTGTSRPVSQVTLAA
Chain of Siglec-7 (BLI) (Q9Y286 19-353 limits assumed): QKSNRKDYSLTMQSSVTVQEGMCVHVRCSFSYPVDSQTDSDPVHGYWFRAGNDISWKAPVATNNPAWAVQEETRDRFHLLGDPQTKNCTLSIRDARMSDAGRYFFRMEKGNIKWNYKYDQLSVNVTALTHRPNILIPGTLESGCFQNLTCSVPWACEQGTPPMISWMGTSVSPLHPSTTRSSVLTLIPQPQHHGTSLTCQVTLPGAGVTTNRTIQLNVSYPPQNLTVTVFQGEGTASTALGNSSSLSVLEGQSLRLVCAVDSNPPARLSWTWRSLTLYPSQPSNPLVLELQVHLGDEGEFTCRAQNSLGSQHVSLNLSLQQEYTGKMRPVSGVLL
T3 sequence (Q9Y286 19-353 limits assumed): as above

B1: ED2D5 in Fab format (Fab, V domains shown)
VH: EVQLVESGGGLVKPGGSLKLSCAASGFTFSDYYMYWVRQTPEKRLEWVATISDGGSDTYYPDNMKGRFTISRDNAKNNLYLQMSSLKSEDTAMYYCTRDPDYDDGRFAYWGQGTLVTVSA
VL: DIVMTQSHKFMSTSVGDRVSITCKASQDVGTVVAWYQQKSGQSPKLLIYWSSTRHTGVPDRFTGSGSGTDFTLTISNVQSEDLADYFCQQYIDYPLSFGAGTKLELK
notes: Tested in Fab format in BLI
As for B1, the binding result in [1] is given as “no binding (tested: 250 nM)”; in [2] it was “no binding (tested: 250 nM)”; in assay [3], “no binding (tested: 250 nM)”; in [4] it was “no binding (tested: 250 nM)”; in assay [5] it was “no binding (tested: 250 nM)”; in [6] it was “binds”.

B2: anti-Siglec-9 monoclonal antibody clone ED2D5 (antibody, V domains shown)
VH: EVQLVESGGGLVKPGGSLKLSCAASGFTFSDYYMYWVRQTPEKRLEWVATISDGGSDTYYPDNMKGRFTISRDNAKNNLYLQMSSLKSEDTAMYYCTRDPDYDDGRFAYWGQGTLVTVSA
VL: DIVMTQSHKFMSTSVGDRVSITCKASQDVGTVVAWYQQKSGQSPKLLIYWSSTRHTGVPDRFTGSGSGTDFTLTISNVQSEDLADYFCQQYIDYPLSFGAGTKLELK
notes: Mouse hybridoma monoclonal antibody
With B2, the values for the binding result in assay [7] and in assay [8] were “no binding” and “binds”, respectively.

B3: anti-Siglec-9 monoclonal antibody clone CB6B3 (parental mouse antibody) (antibody, V domains shown)
VH: EVQLQQSGAEVVRPGALVKLSCKAAGFNIKDYFIHWVKQRPEQGLEWIGLIDPENDNTMYDPRFQVKASLTADTSSNTAYLQLSRLTSEDAAVYYCASTVVARSFDYWGQGTTLTVSS
VL: SIVMTQTPKFLLVSAGDRVTITCKASQSVSNDVAWYQQKSGQSPKLLIYYTSNRYTGVPDRFTGSGYGTDFTFTISTVQAEDLAVYFCQQDFRSPFTFGAGTKLELK
notes: Mouse hybridoma IgG; also called moIgG CB6B3; mouse IgG CB6B3
In the case of B3, the figures for the binding result in assay [9], in assay [7] and in [8] were “binds”, “no binding” and “binds”, respectively.

B4: CB6B3 in Fab format (Fab, V domains shown)
VH: EVQLQQSGAEVVRPGALVKLSCKAAGFNIKDYFIHWVKQRPEQGLEWIGLIDPENDNTMYDPRFQVKASLTADTSSNTAYLQLSRLTSEDAAVYYCASTVVARSFDYWGQGTTLTVSS
VL: SIVMTQTPKFLLVSAGDRVTITCKASQSVSNDVAWYQQKSGQSPKLLIYYTSNRYTGVPDRFTGSGYGTDFTFTISTVQAEDLAVYFCQQDFRSPFTFGAGTKLELK
notes: Tested in Fab format in BLI; printed as 'C1B613', read as CB6B3; also called C1B613
For the molecule B4, the binding result in assay [1], in assay [2], in assay [3], in assay [4] and in [5] was “no binding (tested: 250 nM)” throughout.

B5: chimeric IgG1 CB6B3 (cIgG CB6B3) (antibody, V domains shown)
VH: EVQLQQSGAEVVRPGALVKLSCKAAGFNIKDYFIHWVKQRPEQGLEWIGLIDPENDNTMYDPRFQVKASLTADTSSNTAYLQLSRLTSEDAAVYYCASTVVARSFDYWGQGTTLTVSS
VL: SIVMTQTPKFLLVSAGDRVTITCKASQSVSNDVAWYQQKSGQSPKLLIYYTSNRYTGVPDRFTGSGYGTDFTFTISTVQAEDLAVYFCQQDFRSPFTFGAGTKLELK
notes: Chimeric IgG1 of CB6B3 made in HEK293-6E cells; also called cIgG CB6Bb
Turning to B5, the binding result in [10] is “binds”.
